Here are results for six substances from patent publication US20050159354A1.

For assay [1], the target named is neuronal receptor for agrin, on cultured mouse cortical neurons (mouse). Briefly: cell-based or functional assay.
For assay [2] the target is unchanged. The assay can be described thus: NIH Image analysis of immunofluorescence on cortical neurons; competitor C-Ag20z8 at 1:1 molar ratio (unpublished data).

In assay [1], “C-Ag15, 15-kD COOH-terminal fragment of mouse agrin (ligand)” yielded an IC50 of inhibition of c-fos induction by 50 pM C-Ag95z8 in cortical neurons of 64.5 pM and an inhibition of rescue of the agrin-deficient glutamate response by 5 nM C-Ag95z0 (10 nM C-Ag15) of 54%.

Consider “C-Ag20z0, 20-kD COOH-terminal fragment of mouse agrin, z0 splice variant (ligand)”, for which, in assay [1], the EC50 of c-fos induction in cortical neurons (in situ enzyme-linked immunoassay) is 0.0133 nM and the rescue of glutamate-induced Fos expression in agrin-deficient neurons (5 nM, 2 d) is 2.2 fold.

In assay [1], “C-Ag20z8, 20-kD COOH-terminal fragment of mouse agrin, z8 splice variant (ligand)” gave an EC50 of c-fos induction in cortical neurons (in situ enzyme-linked immunoassay) of 0.0112 nM and a rescue of glutamate-induced Fos expression in agrin-deficient neurons (5 nM, 2 d) of 2.2 fold.

“C-Ag95z0, soluble 95-kD COOH terminus of mouse agrin, y4 z0 (from UniProt A2ASQ1 1144-1950) (ligand)” showed an EC50 of c-fos induction in cortical neurons (in situ enzyme-linked immunoassay) in assay [1] of 0.0119 nM.

With “C-Ag95z8, soluble 95-kD COOH terminus of mouse agrin, y4 z8 (from UniProt A2ASQ1 1144-1950) (ligand)”, the EC50 of c-fos induction in cortical neurons (in situ enzyme-linked immunoassay) in assay [1] is 0.0127 nM.

In the case of “rC-Agy4z8, soluble 95-kD COOH-terminal fragment of rat agrin, y4z8 isoform (from UniProt P25304 1153-1951) (ligand)”, the reduction of labeling (mean pixel intensity) in assay [2] was 30%.
